Data on one molecule can be found in article doi:10.1101/2023.03.07.531120 (bioRxiv, 2023).

Where no end group is shown, it is not given here. The star is where a group is joined. FITC = O=C1OC2(c3ccc(O)cc3Oc3cc(O)ccc32)c2ccc(NC(=S)*)cc21; Oleoyl = CCCCCCCC/C=C\CCCCCCCC(=O)*

The target of this experiment is T1, AP2 μ2 subunit (in the mouse AP2 core) (mouse, UniProt P84091 1-435).
T1 sequence: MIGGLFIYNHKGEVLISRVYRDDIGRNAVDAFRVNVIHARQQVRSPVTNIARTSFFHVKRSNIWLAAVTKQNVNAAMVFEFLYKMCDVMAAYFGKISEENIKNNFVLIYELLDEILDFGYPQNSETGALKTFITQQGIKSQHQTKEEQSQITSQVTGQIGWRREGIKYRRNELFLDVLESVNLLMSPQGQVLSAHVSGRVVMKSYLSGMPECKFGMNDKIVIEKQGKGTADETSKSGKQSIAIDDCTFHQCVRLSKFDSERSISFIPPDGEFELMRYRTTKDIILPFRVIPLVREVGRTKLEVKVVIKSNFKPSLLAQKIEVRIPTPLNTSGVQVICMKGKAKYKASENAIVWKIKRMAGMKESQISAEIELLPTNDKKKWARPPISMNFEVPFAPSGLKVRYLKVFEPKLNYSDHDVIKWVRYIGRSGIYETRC
Kind of experiment: cryo-EM structure.

B1: Lipidated YxxΦ-cargo peptide of Tgn38 (Oleic acid-S{Lys(FITC)}KVTRRPKASDYQRL) (peptide)
peptide: Oleoyl-SK(FITC)KVTRRPKASDYQRL
For the molecule B1, the binding result is recorded as “binds”.
